Assay results as given in patent publication US20240182563A1 (GENOME, published 2024).
Where a chain is given by its changes, count along the chain named. Names and notes keep the numbering of the source.

B1: anti-CNTN4 scFv-hCk S24 (scFv, part only; not given: linker and kappa constant region, not shown: a dimerising Fc or GST)
scFv, part: ALTQPSSVSANPGETVEITCSGGSGSYGWYQQKAPGSAPVTVIYDNTNRPSNIPSRFSGSGSDSTGTLTITGVQADDEAVYYCGSYDSIEVIFGAGTTLTVLAVTLDESGGGLHTPGGALSLVCKASGFTFSSYGMAWVRQAPGKGLEWVAGITSSGSSAGYGPAVKGRATISRDNGQSTVRLQLNNLRAEDTATYYCAKDGYIYSGGDSDSIDAWGHGTEVIVSS
B2: anti-CNTN4 scFv-hCk S46 (scFv, part only; not given: linker and kappa constant region, not shown: a dimerising Fc or GST)
scFv, part: B1 scFv, part with E78K, G208A
B3: anti-CNTN4 scFv-hCk S6 (scFv, part only; not given: linker and kappa constant region, not shown: a dimerising Fc or GST)
scFv, part: ALTQPSSVSANPGETVKITCSGGSGNYGWYQQKSPGSAPVTVIYNGNNRPSDIPSRFSGSGSGSTNTLAITGVQAEDEAVYFCGGYDGTIDAFGAGTTLTVLAVTLDESEGGLQTPGGALSLVCKASGFTFSSFNMFWVRQAPGKGLEYVAEISGGGGSTWYAPAVKGRATISRDNGQSTVRLQLNNLRAEDTGTYYCAKSADTWSYGAATIDAWGHGTEVIVSS
B4: anti-CNTN4 scFv-hCk S1 (scFv, part only; not given: linker and kappa constant region, not shown: a dimerising Fc or GST)
scFv, part: ALTQPSSVSANPGETVKITCSGGSSYGWYQQKSPGSAPVTVIYDNTNRPSNIPSRFSGSKSGSTNTLTITGVRAEDEAVYFCGGYDSSIDAFGAGTTLTVLAVTLDESEGGLQTPGGALSLVCKASGFTFSSFNMFWVRQAPGKGLEYVAEISGGGGSTWYAPAVKGRATISRDNGQSTVRLQLNNLRAEDTGTYYCAKSADTWSYGAATIDAWGHGTEVIVSS
B5: anti-CNTN4 scFv-hCk S4 (scFv, part only; not given: linker and kappa constant region, not shown: a dimerising Fc or GST)
scFv, part: ALTQPSSVSANPGESVKITCSGGGSSYYGWYQQKSPGSAPVTLIYQNTNRPSNIPSRFSGSGSGSTGTLTITGVRAEDEAVYYCGGYDGSTDVFGAGTTLTVLAVTLDESEGGLQTPGGALSLVCKASGFTFSSFNMFWVRQAPGKGLEYVAEISGGGGSTWYASAVKGRATISRDNGQSTVRLQLNNLRAEDTGTYYCAKSADTWSYGAATIDAWGHGTEVIVSS
B6: anti-CNTN4 IgG A35WB27 (antibody, V domains shown)
VH: AVTLDESGGGLHTPGGALSLVCKASGFTFSSYGMAWVRQAPGKGLEWVAGITSSGSSAGYGPAVKGRATISRDNGQSTVRLQLNNLRAEDTATYYCAKDGYIYSGADSDSIDAWGHGTEVIVSS
VL: ALTQPSSVSANLGETVKITCSGGYSGYGWYQQKSPGSAPVTVIYYNDKRPSDIPSRFSGSKSGSTGTLTITGVRAEDEAVYFCGSADSSTGYVAIFGAGTTLTVL
notes: human IgG4 (S228P)
B7: anti-CNTN4 IgG A35SF75 (antibody, V domains shown)
VH: B6 VH
VL: ALTQPSSVSANPGVTVKITCSGGGGSYGWYQQKAPGSAPVTLIYNNTNRPSDIPSRFSGSRSGSTNTLTITGVQAEDEAVYFCGGYDSNTDYVGFGAGTTLTVL
notes: human IgG4 (S228P)
B8: anti-CNTN4 IgG A35SF13 (antibody, V domains shown)
VH: B6 VH
VL: ALTQPSSVSANPGETVKITCSGGGGSYGWYQQKSPGSALVTVIYNNDNRPSNIPSRLSGSKSGSTATLTITGVRAEDEAVYFCGSADNNGYIAIFGAGTTLTVL
notes: human IgG4 (S228P)
B9: anti-CNTN4 IgG A35SF37 (antibody, V domains shown)
VH: B6 VH
VL: ALTQPSSVSANLGGTVKITCSGGSNNYGWYQQKSPGSAPVTVIYYNNKRPSDIPSRFSGSKSGSTATLTITGVQAEDEAVYFCGGYDSSSNSDVYGAGTTLTVL
notes: human IgG4 (S228P)
B10: anti-CNTN4 IgG A35SF5 (antibody, V domains shown)
VH: B6 VH
VL: ALTQPSSVSANPGETVEITCSGSSGSNYGWYQQKSPGSAPVTLIYYNDNRPSDIPSRFSGSKSGSTGTLTITGVQVEDEAVYYCGAWESSSNPDIFGAGTTLTVL
notes: human IgG4 (S228P)
B11: anti-CNTN4 IgG A35SF90 (antibody, V domains shown)
VH: B6 VH
VL: ALTQPSSVSANLGGTVEITCSGSNNNNYGWYQQKTPGSAPVTLIYNNNQRPSDIPSRFSGSKSGSTGTLTITGVRAEDEAVYYCGGYDSSIYFDIFGAGTTLTVL
notes: human IgG4 (S228P)
B12: anti-CNTN4 IgG A35SF39 (antibody, V domains shown)
VH: B6 VH
VL: ALTQPSSVSANLGGTVKITCSGGSGSYGWYQQKSPGSAPVTVIYNNNNRPSDIPSRFSGSTSGSTGTLTITGVRAEDEAVYFCGGYDTDSPIFGAGTTLTVL
notes: human IgG4 (S228P)
B13: anti-CNTN4 scFv-hCk S83 (scFv, part only; not given: linker and kappa constant region, not shown: a dimerising Fc or GST)
scFv, part: ALTQPSSVSANLGETVKITCSGGGGYSGSYYYGWYQQKSPAGAPDTVIYSNNQRPSNIPSRFSGSKSGSTGTLTITEDHAEDEAVYYCGSIDSSSNPGIFGAGTTLTVLAVTLDKSGGGLHTPGGALSLVCKASGFTFSRYIMQWVLQAPGKVLEWVASIRNGTTPKYGAAVKGRATISRDNGQSTVMLQLNSLTYDDTDAYYCDRGDDGDCICGGCAASIDIWCYATEVIVSS
B14: anti-CNTN4 scFv-hCk S96 (scFv, part only; not given: linker and kappa constant region, V domains shown, not shown: another chain or arm of the molecule; a dimerising Fc or GST; small tags and cut ends)
VL: ALTQPSSVSANPGETVKITCSGSSGSYGYSWHQQKSPGSAPVTVIYESNKRPSNIPSRFSGSTSGSTSTLTITGVQADDEAVYFCGSADSSTTIAFGAGTTLTVL
VH: AVTLDESGGGLQTPGGTLSLVCKASGFTFSTYSMQWLRQAPGKGLEWVAGISNSGSSTVYGPAVKGRATISRDNGQSTVSLQLNNLRAEDTGTYYCAKSTYGGSWYAAYSIDEWGHGTEVIVSS

Target: T1, mouse CNTN4-rabbit Fc (mouse; rabbit, UniProt Q69Z26 19-1000, limits assumed)
T1 construct: not shown: rabbit Fc
T1 sequence (looked up): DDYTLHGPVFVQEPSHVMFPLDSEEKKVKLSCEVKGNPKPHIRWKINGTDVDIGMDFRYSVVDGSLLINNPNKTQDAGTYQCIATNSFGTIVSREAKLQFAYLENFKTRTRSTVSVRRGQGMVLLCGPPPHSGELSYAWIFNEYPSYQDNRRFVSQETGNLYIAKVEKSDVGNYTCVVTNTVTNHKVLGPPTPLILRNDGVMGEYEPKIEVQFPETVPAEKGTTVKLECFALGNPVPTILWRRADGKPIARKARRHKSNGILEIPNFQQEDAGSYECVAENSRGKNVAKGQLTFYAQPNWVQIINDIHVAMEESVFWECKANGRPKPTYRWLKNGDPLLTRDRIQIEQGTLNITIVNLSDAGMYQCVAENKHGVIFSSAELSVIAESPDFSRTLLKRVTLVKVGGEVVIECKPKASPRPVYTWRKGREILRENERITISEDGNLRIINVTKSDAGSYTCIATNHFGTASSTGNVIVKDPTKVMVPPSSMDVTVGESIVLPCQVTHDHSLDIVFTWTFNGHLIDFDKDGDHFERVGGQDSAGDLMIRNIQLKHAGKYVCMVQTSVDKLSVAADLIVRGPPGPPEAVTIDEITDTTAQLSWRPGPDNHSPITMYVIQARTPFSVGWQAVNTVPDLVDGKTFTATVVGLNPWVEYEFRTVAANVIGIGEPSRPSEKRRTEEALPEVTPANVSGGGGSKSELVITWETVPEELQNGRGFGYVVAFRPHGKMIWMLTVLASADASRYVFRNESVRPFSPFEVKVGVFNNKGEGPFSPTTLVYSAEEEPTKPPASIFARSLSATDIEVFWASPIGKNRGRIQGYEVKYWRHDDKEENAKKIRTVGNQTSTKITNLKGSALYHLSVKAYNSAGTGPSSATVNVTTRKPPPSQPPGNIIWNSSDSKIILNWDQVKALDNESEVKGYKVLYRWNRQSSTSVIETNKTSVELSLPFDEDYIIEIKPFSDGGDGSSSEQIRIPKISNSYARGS
Experiment: ELISA, plate coated with antigen-rabbit Fc, anti-human kappa-HRP

Row | Binder | EC50 [nM]
1 | B1 | 2.07
2 | B2 | 1.2
3 | B3 | 1.85
4 | B4 | 1.53
5 | B5 | 1.15

Target: T2, human CNTN4-rabbit Fc (human; rabbit, UniProt Q8IWV2 19-1000, limits assumed)
T2 construct: not shown: rabbit Fc
T2 sequence (looked up): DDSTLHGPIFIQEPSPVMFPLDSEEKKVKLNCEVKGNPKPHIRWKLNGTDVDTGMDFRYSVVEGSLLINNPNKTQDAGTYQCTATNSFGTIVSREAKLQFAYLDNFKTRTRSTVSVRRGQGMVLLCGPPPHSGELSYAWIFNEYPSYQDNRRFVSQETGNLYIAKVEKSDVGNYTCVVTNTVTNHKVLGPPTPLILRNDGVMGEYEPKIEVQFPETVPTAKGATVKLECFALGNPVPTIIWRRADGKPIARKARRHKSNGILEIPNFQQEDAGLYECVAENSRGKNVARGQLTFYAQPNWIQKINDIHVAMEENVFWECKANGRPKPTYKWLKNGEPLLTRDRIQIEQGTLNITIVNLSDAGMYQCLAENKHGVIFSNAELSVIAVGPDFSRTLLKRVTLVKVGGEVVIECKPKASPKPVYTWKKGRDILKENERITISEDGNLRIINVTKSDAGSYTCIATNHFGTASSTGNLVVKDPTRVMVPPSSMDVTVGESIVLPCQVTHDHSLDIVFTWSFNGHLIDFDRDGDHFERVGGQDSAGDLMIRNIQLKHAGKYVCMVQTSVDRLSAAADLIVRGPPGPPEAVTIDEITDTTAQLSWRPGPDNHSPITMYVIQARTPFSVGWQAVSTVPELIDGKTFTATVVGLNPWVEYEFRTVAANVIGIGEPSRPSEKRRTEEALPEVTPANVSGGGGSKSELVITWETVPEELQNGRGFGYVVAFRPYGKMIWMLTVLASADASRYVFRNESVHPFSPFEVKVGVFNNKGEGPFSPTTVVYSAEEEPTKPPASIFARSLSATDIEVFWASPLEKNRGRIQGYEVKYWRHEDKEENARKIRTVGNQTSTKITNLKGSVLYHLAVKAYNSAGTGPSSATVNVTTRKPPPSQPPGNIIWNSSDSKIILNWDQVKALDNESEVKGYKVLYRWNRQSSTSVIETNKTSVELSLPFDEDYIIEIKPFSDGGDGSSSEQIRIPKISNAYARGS
Experiment: as above

Row | Binder | EC50 [nM]
6 | B1 | 1.12
7 | B2 | 1.22
8 | B3 | 0.37
9 | B4 | 4.44
10 | B5 | 2.6

Target: T3, human CNTN4 antigen expressed on the cell membrane of 293FT cells (human, UniProt Q8IWV2 19-1000)
T3 construct: whole, on cells; also called Human CNTN4 transfected cell
T3 sequence (looked up): T2 sequence (looked up)
Experiment: FACS, 293FT cells transfected with human CNTN4, 40 ug/mL, anti-hFc-PE

Row | Binder | Shift % [%]
11 | B6 | 88.2
12 | B7 | 84.8
13 | B8 | 82.1
14 | B9 | 86.6
15 | B10 | 82.6
16 | B11 | 82.8
17 | B12 | 80

Target: T1, mouse CNTN4-rabbit Fc
Experiment: ELISA, plate coated with antigen-rabbit Fc, anti-human IgG Fc-HRP
Experimental: (§1) An ELISA tests were performed on a total of 25 scFv-hCks and a total of 27 IgGs for which the expression was confirmed in Example 1.2. An ELISA plate was coated with 200 ng of antigens (human CNTN4-rabbit Fc or mouse CNTN4-rabbit Fc). 200 ng of a negative control (human antigen-rabbit Fc) for a tagging protein was used. For antibody binding, anti-CNTN4 scFv-hCk was serially diluted from a maximum of 1 μM to 0.001 nM by 1/10×each, and anti-CNTN4 IgG was serially diluted from a maximum of 10 nM to 0.00001 nM by 1/10×each, thereby binding to the antigen. Anti-human kappa-HRP or anti-human IgG Fc-HRP was used as the secondary antibody for antibody detection. Color was developed using ABTS, which is a color developing reagent, and the absorbance at 405 nm was measured.

Row | Binder | EC50 [nM]
18 | B6 | 0.01
19 | B7 | 0.2
20 | B8 | 0.02
21 | B9 | 0.01
22 | B10 | 0.01
23 | B11 | 0.01
24 | B12 | 0.01

Target: T2, human CNTN4-rabbit Fc
Experiment: as above
Experimental: as §1

Row | Binder | EC50 [nM]
25 | B6 | 0.01
26 | B7 | 0.21
27 | B8 | 0.01
28 | B9 | 0.01
29 | B10 | 0.01
30 | B11 | 0.01
31 | B12 | 0.01

Target: T4, human CNTN4 antigen expressed on the cell membrane of 293FT cells (human) (UniProt Q8IWV2)
T4 sequence (looked up): T2 sequence (looked up)
Experiment: FACS, 293FT cells transfected with human CNTN4, 40 ug/mL, anti-hCk-PE

Row | Binder | Shift % [%]
32 | B1 | 5.63
33 | B2 | 8.19
34 | B3 | 14.7
35 | B4 | 13.8
36 | B13 | 5.27
37 | B14 | 1.69
38 | B5 | 15.4
